Measurements from EP1073463B1.
Blank lines part the entries; values can stand above or below the substance they belong to.

Tests used:
[1] = target: human CD3 on Jurkat cells (human) (UniProt P07766); experiment: competition with 125I-UCHT1 on Jurkat cells, COS-7 preparation at 100 nM
[2] = target: human CD3 on Jurkat cells (human) (UniProt P07766); experiment: competition with 125I-UCHT1 on Jurkat cells, SP2/0 preparation at 1 nM
[3] = target: human CD3 on Jurkat cells (human) (UniProt P07766); experiment: competition with 125I-UCHT1 on Jurkat cells, COS-7 preparation at 1 nM
[4] = target: human CD3 on Jurkat cells (human) (UniProt P07766); experiment: competition with 125I-UCHT1 on Jurkat cells, SP2/0 preparation at 100 nM
human FcR = experiment: cell-based or functional assay
[5] = target: human CD3 on Jurkat cells (human) (UniProt P07766); experiment: competition with 125I-UCHT1 on Jurkat cells, competitor at 1 nM
[6] = target: human CD3 on Jurkat cells (human) (UniProt P07766); experiment: competition with 125I-UCHT1 on Jurkat cells, competitor at 100 nM
[7] = target: human CD3 on Jurkat cells (human) (UniProt P07766); experiment: cell-based or functional assay

Chain of UniProt P07766 (P07766 23-207): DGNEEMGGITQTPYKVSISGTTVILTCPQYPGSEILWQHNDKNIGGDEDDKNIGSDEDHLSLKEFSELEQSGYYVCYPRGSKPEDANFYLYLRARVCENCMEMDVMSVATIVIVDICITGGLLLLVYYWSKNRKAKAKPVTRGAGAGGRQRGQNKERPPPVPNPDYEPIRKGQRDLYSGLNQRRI

% of 125I-UCHT1 bound to cells [1]: 0% | % of 125I-UCHT1 bound to cells [2]: 80% | % of 125I-UCHT1 bound to cells [3]: 80% | % of 125I-UCHT1 bound to cells [4]: 0%
Substance: scUCHT1, chimeric anti-human CD3 single chain antibody (UCHT1 VL-linker-VH fused to human IgM Fc µCH2 to µCH4) (from UniProt P01871 106-453) (scFv)

T-cell proliferation of human PBMCs ([3H]thymidine incorporation), concentration at peak (human FcR): 100 ng/mL | T-cell proliferation of human PBMCs ([3H]thymidine incorporation), lowest active concentration (human FcR): 0.1 ng/mL | % of 125I-UCHT1 bound to cells [5]: 80% | % of 125I-UCHT1 bound to cells [6]: 0%
Substance: UCHT1 monoclonal antibody (anti-human CD3)

Substance: sFv-DT390, anti-CD3 single-chain immunotoxin with truncated diphtheria toxin (from UniProt P00588 33-422)
IC50 (toxicity, inhibition of protein synthesis) [7]: 0.048 nM | Protein synthesis (% of controls), Jurkat cells, 1 x 10^-10 M, no serum (% of controls) [7]: 18 | potency relative to UCHT1-CRM9 (fold of UCHT1-CRM9 potency) [7]: 0.0625
